# Target: PP1G(7–300) (mouse) (UniProt P63087)
substance,measurement,value
eIF2a^P (1–185) R66E; K86E double mutant (domain or fragment),"dephosphorylation as a substrate of the PPP1R15B-MBP-PP1-actin ternary complex, against wildtype eIF2a^P (Figure 8B)",> 10 fold
same,"dephosphorylation as a substrate of the PPP1R15B-MBP-PP1 binary complex, against wildtype eIF2a^P (Figure 8B)",2 fold

# — paper PMC4394352
